This passage reports EC50 results from patent US20220195015A1 (published 2022).

B1: C097 (antibody, V domains shown)
VH: QVQLQESGPGLVKPSQTLSLTCTVSGGSISSGPYYWSWIRQHPGKGLEWIGYIYYSGSTYYNPSLKSRVTISVDTSKKQFSLNLNSVTAADTAVYYCARVWQYYDSTGSFDYWGQGTLVTVSS
VL: DIVMTQSPLSLPVTPGEPASISCRSSRGLLHSNGYNYLDWYLQKPGQSPQLLIYLGSNRASGVPDRFSGSGSVTDFTLNISRVEAEDVGVYYCMQALQTPFTFGPGTKVDIK
B2: C049 (antibody, V domains shown)
VH: QVQLQESGPGLVKPSETLSLTCTVSGGSVSSGTFYWSWIRQPPGKGLEWIGYIHYSGSTNYNPSLKSRVTISVDTSKNQFSLRLSSVTAADTAVYYCARESFYYDRSGYYGSDAFDIWGQGTMVTVSS
VL: DIQMTQSPSTLSSSVGDRVTITCRASQNISRWLAWYQQKPGKAPKLLIYKASTLESGVPSRFSGSGSGTKFTLTISSLQPDDFATYYCQQYNSYLYTFGQGTKLEIK
B3: C047 (antibody, V domains shown)
VH: QVQLQESGPGLVKPSETLSLTCTVSGGSISSTTYYWDWIRQSPGKGLEWIGSIFYTGITYYSPSLKSRVTISVDTSKNQFSLRLNSMTAADTAVYYCARRLRQLWFGPWFDPWGQGTLVTVSS
VL: QSALTQPPSASGSPGQSVTISCTGTRSDVGDYNYVSWYQQHPDKAPKLIIYEVTKRPSGVPDRFSGSKSGNTASLTVSGLQAEDEADYYCSSYAGSNNVMFGGGTKLTVL
B4: C095 (antibody, V domains shown)
VH: VQLVEAGGGVVQPGRSLRLSCAASGLAFSIYGMHWVRQAPGKGLEWVAIVAQDGSKKYYADSVKGRFTISRDNSKNTLYLEMNSLRTEDTAVYYCVKEGRPSDTVVVVAFDYWGQGSLVTVSS
VL: DIQLTQSPSSLSASVGDRVTITCRASQSISNYLNWYQQKPGKAPKVIIYAASSLQSGVPSRFSGSGSGTDFTLTISSLQPEDFATYYCQQSHSIPRTFGQGTKVEIK
B5: C043 (antibody, V domains shown)
VH: QLVQSGPEVKKPGTSVKVSCKASGFTFYNSAVQWVRQARGQRLEWVGWIVVGSGNTDYAQKFQERVTMTRDLSTNTAYMEVNSLRSEDTAVYYCAAPYCSGGTCLDGFDIWGQGTMVTVSS
VL: EIVLTQSPGTLSLSPGERGTLSCRASQSVRSNYLAWYKQRPGQAPRLLVYGASSRATGIPDRFSGSGSGTDFTLTISRLEPEDFAVYYCQQYGSSPWTFGQGTKVEIK
B6: C098 (antibody, V domains shown)
VH: EVQLVESGGGLIQPGGSLRLSCAASGFTVSSNYMSWVRQAPGKGLEWVSVIYSGGSTYYADSVKGRFTISRDNSKNTLYLQMNSLRAEDTAVYYCARDLYSSGGTDIWGQGTMVTVSS
VL: not shown
B7: C099 (antibody, V domains shown)
VH: B6 VH with F27I, I51M, S53A, Y58F, N73D, Y79F, V92I
VL: EIVLTQSPGTLSLSPGERATLSCRASQSIGSSYLAWYQQKPGLAPRLLIYGASRRATGIPDKFSGSGSGADFTLTISRLEPEDFAVYYCQQYGSSPGTFGQGTKVEIK
B8: C044 (antibody, V domains shown)
VH: EVQLVESGGGLVQPGGSLRLSCAASGFTFSSYSMNWVRQAPGKGLEWVSYISSSSSTIYYADSVKGRFTISRDNAKNSLYLQMNSLRDEDTAVYYCAREAHDGALTDYGDYLNWFDPWGQGTLVTVSS
VL: SYELTQPPSVSVAPGKTARITCGGNNIGSKSVHWYQQKPGQAPVLVIYYDSDRPSGIPERFSGSNSGNTATLTISRVEAGDEADYYCQVWDSSSDHLYWVFGGGTKLTVL
B9: C045 (antibody, V domains shown)
VH: B8 VH with S31T, Y59H
VL: B8 VL with N25T, S31N, S51N, S92T, S93T, L97F
B10: C048 (antibody, V domains shown)
VH: VQLQESGPGLVKPSETLSLTCAVSGGSVSSGNYYWNWIRQPPGKGLEWIGYIYYSGSTNYNPSLKSRVTISVDTSKNQFSLKLNSVTAADTAVYHCARETYYYDSSGYYISDAFDIWGQGTMVTVSS
VL: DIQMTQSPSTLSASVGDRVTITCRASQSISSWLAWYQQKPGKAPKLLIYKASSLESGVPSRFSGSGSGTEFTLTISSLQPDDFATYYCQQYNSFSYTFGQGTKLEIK

Substitutions are numbered along the chain they refer to.

In the experiment the target is SARS-CoV-2 spike receptor binding domain (RBD), wild type (SARS-CoV-2, UniProt P0DTC2 319-539). The experiment in a line: ELISA on coated RBD protein. A general note: ELISA stands for enzyme-linked immunosorbent assay.
The EC50 is the concentration giving half of the maximal effect. Lower therefore signals a more potent agent. As for B1, the EC50 came to 3.45 ng/mL.

Regarding B2, the EC50 came out at 4.09 ng/mL.

Molecule B3 gave an EC50 of 11.1 ng/mL.

The molecule B4 registered an EC50 of 1.1 ng/mL.

B5 came in with an EC50 of 12.1 ng/mL.

B6 gave an EC50 of 7.7 ng/mL.

For the molecule B7, the EC50 was determined as 2.45 ng/mL.

As to B8, the EC50 was determined as 1820 ng/mL.

For the molecule B9, the EC50 stood at 7 ng/mL.

For B10, the EC50 was determined as 4.8 ng/mL.
